Assay results: publication PMC5666081, “Solution structure of CXCL13 and heparan sulfate binding show that GAG binding site and cellular signalling rely on distinct domains” (Open Biology, 2017)

Target: T1, ΔN-CXCL13 (murine CXCL13 residues 31-109 with the initiating methionine) (murine)
T1 chain: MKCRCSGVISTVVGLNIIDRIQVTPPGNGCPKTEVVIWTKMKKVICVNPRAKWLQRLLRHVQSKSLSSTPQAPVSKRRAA
Assay: NMR titration; [15N,1H] correlation spectra at different protein concentrations; monomer and dimer signals in slow exchange; KD of dimer to monomers from integrated signals of monomer and dimer; T1/T2 relaxation; 20 mM phosphate, 100 mM NaCl, pH 6, 298 K; addition of HS tetrasaccharide dp4 (50 µM on 50 µM ΔN-CXCL13) increases the dimer signals
Settings: both partners purified

B1: ΔN-CXCL13 (murine CXCL13 residues 31-109 with the initiating methionine) (domain or fragment)
chain: T1 chain
modifications: initiating Met kept (piece 1); paper residue numbers are mature, offset +21 to the precursor; two disulfides expected from the chemokine fold / initiating Met kept (piece 1); paper residue numbers …
  Kd: 300 ± 100 µM
  stoichiometry N: 2
